Data published in PMC3103650 (Chemico-biological interactions, 2011).

Target: the molecule itself
Assay: SEC

B1: C-terminal domain of mtFDH (ALDH1L2), residues 413-923 (domain or fragment, human, UniProt Q3SY69 413-923, looked up)
chain: VRKLRGEDQEVELVVDYISKEVNEIMVKMPYQCFINGQFTDADDGKTYDTINPTDGSTICKVSYASLADVDKAVAAAKDAFENGEWGRMNARERGRLMYRLADLLEENQEELATIEALDSGAVYTLALKTHIGMSVQTFRYFAGWCDKIQGSTIPINQARPNRNLTFTKKEPLGVCAIIIPWNYPLMMLAWKSAACLAAGNTLVLKPAQVTPLTALKFAELSVKAGFPKGVINIIPGSGGIAGQRLSEHPDIRKLGFTGSTPIGKQIMKSCAVSNLKKVSLELGGKSPLIIFNDCELDKAVRMGMGAVFFNKGENCIAAGRLFVEESIHDEFVTRVVEEIKKMKIGDPLDRSTDHGPQNHKAHLEKLLQYCETGVKEGATLVYGGRQVQRPGFFMEPTVFTDVEDYMYLAKEESFGPIMVISKFQNGDIDGVLQRANSTEYGLASGVFTRDINKAMYVSEKLEAGTVFINTYNKTDVAAPFGGVKQSGFGKDLGEEALNEYLKTKTVTLEY
- stoichiometry N: 4
